In article PMC11625884 one finds fold change of the AMBRA1/DDB1 interaction against AMBRA1^WT data, which are given here for one substance.

This experiment addresses AMBRA1^WD40 (UniProt Q9C0C7). Kind of experiment: co-IP; AMBRA1 antibody (Proteintech) coupled to Dynabeads, mixed with lysate of SHSY5Y cells overexpressing AMBRA1 constructs; washed; western blot for the protein of interest.
Sequence of UniProt Q9C0C7 (Q9C0C7 whole entry): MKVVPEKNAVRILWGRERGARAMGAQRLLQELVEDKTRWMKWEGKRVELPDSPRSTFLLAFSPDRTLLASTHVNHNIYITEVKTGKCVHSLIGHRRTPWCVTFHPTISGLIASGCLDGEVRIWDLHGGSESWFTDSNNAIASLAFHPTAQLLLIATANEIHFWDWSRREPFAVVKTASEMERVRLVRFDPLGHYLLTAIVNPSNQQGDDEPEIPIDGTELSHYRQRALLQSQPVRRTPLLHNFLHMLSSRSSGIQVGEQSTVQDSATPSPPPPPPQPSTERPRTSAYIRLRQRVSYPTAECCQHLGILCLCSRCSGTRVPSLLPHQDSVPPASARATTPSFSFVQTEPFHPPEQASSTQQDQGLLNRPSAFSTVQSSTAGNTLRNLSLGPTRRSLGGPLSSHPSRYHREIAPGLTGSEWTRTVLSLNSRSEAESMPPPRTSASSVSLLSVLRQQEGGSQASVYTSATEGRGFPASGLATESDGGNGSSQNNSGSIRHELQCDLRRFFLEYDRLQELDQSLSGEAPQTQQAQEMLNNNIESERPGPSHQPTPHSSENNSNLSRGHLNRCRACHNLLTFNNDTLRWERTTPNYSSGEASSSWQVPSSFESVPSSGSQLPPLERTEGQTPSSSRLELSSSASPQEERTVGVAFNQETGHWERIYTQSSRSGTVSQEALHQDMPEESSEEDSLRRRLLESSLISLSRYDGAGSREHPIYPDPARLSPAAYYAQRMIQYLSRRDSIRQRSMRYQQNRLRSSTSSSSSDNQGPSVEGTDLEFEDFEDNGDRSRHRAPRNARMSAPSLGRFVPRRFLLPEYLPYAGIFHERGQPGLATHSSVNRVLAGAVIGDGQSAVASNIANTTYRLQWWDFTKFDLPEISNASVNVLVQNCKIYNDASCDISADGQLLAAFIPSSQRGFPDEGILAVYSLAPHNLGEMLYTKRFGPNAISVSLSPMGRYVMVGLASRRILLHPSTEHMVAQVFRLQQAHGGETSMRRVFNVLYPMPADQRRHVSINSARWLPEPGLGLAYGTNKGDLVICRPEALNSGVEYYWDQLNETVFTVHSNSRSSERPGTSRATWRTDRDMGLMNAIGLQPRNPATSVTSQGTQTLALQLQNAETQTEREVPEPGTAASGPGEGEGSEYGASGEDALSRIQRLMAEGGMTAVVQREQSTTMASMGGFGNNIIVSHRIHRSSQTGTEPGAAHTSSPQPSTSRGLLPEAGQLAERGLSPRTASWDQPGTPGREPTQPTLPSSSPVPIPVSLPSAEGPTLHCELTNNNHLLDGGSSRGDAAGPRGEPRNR

For the substance “DDB1 (from UniProt Q16531 1-1140) (natural protein)”, the fold change of the AMBRA1/DDB1 interaction against AMBRA1^WT is 0.5 fold.
